Data published in patent publication US9125872B2, “Polyethylene glycol aerogels for targeted delivery of pharmaceutical drubs” (priority 2009, dated 2015).

Tests used:
Format in all cases: physicochemical
[1] = Solubility of purified solid protein-PEG conjugates in water
[2] = Drug loading and biologics encapsulation in PEG aerogel granules
Protocol: To 1 gram PEG [MW=2,000,000] dissolved in 100 ml anhydrous toluene, 100 mg [0.1 gram] BSA powder is dispersed and the mixture was stirred at 38-45° C. for 30-60 minutes to allow coating/adsorption of soluble PEG molecules on solid BSA particles. 0.2 g benzoyl peroxide was heated in 15 ml anhydrous toluene at 85° C. for 10 minutes. After cooling to 76° C., the catalyst solution was added to the warm PEG-BSA suspension at 38° C., which raised the temperature to 43° C., and mixing was continued for 15 minutes. The solution was poured into a mold and stored in a glove box. Toluene was later removed from the gel by solvent extraction with supercritical carbon dioxide fluid to obtain dry solid aerogel encapsulating BSA fine particles.
5 ml (=2.6 g) granules from PEG aerogel #2 (2009 cold preparation) were desiccated overnight to remove any absorbed vapors during storage.
Gemzar [Eli Lilly, Indiana] solution was made by dissolving 200 mg Gemcitabine HCl in 5 ml 0.9% NaCl [sodium chloride] aqueous solution. 2.3 ml (0.61 g) PEG aerogel #1 [“hot” preparation, 2009] granules were desiccated overnight to remove any absorbed vapors during storage. […] The mixture was placed in a desiccator to remove excess water and render dry loaded aerogel granules.
BSA protein (MW=66,000) was used as an example of large biologic molecules to be encapsulated in PEG aerogel during the gelation process. The encapsulation method is described in the aerogel preparation section.

[3] = Sequential time release of BSA encapsulated in PEG aerogel in distilled water (UV-spectroscopy); details: room temperature
Protocol: As an example of encapsulation and release of pharmaceutical biologics, release tests conducted using one sample weighing 13 mg PEG aerogel encapsulating 1 mg BSA protein in 10 ml distilled water at room temperature. Small solution samples were withdrawn at indicated time intervals above for BSA analysis with UV-spectroscopy at 280 and 260 nm wavelength. Results are calculated and tabulated.

[4] = of the PEG aerogel granules carrying the drug/biologic

With “BSA-PEG-N: BSA linked to aerogel of PEG + Bis(3-aminopropyl) terminated PEG 1,500/2,100” the “Solubility in Water” value ([1]; Body Temperature (37° C.)) was “No” and the “Solubility in Water” value ([1]; Room Temperature (23° C.)) was “No”.
For “BSA-PEG-O: BSA linked to aerogel of PEG + Diglycidylether terminated PEG, 1000”, the “Solubility in Water” value ([1]; Body Temperature (37° C.)) was “No” and the “Solubility in Water” value ([1]; Room Temperature (23° C.)) was “No”.
In the case of “BSA-PEG: BSA surface-linked via EDC to PEG only aerogel”, the “Solubility in Water” value ([1]; Body Temperature (37° C.)) is reported as “No”, the “Solubility in Water” value ([1]; Body Temperature (37° C.), listed as aerogel-BSA “conjugate”) is reported as “water insoluble” and the “Solubility in Water” value ([1]; Room Temperature (23° C.)) is reported as “No”.
For bovine serum albumin [BSA Protein], the “Aerogel Density” value [2, 4] was 0.30 g/cc, the “Aerogel Porosity” value [2, 4] was 75% vol % and the Loading/Encapsulation ([2]; weight of solution (or BSA) per g PEG aerogel) was 77 mg/g Aerogel. For the same substance, the Loading/Encapsulation ([2]; weight of solution (or BSA) per ml PEG aerogel) was 23 mg/ml Aerogel, the “Released BSA” value ([3]; 15 minutes, 13 mg PEG aerogel with 1 mg BSA in 10 ml distilled water) was 0.19 mg and the “Cumulative Percent Release” value ([3]; 15 minutes, distilled water) was 19 % of 1 mg. The “Cumulative Release” value ([3]; 15 minutes, distilled water) was 0.19 mg, the “Released BSA” value ([3]; 3 hours (increment), distilled water) was 0.22 mg and the “Cumulative Percent Release” value ([3]; 3 hours, distilled water) was 41 % of 1 mg. The “Cumulative Release” value ([3]; 3 hours, distilled water) was 0.41 mg, the “Released BSA” value ([3]; 20 hours (increment), distilled water) was 0.26 mg and the “Cumulative Percent Release” value ([3]; 20 hours, distilled water) was 67 % of 1 mg. For the same substance, the “Cumulative Release” value ([3]; 20 hours, distilled water) was 0.67 mg.
